# What was measured:
# [1] = molecular target: T1, human LAG3, full length, stably expressed on cells (human, UniProt P18627 23-525); experiment: FACS on 293F cells stably expressing human LAG3
# T1 construct: whole, on cells; also called CHOK1-human LAG3
# T1 sequence (looked up): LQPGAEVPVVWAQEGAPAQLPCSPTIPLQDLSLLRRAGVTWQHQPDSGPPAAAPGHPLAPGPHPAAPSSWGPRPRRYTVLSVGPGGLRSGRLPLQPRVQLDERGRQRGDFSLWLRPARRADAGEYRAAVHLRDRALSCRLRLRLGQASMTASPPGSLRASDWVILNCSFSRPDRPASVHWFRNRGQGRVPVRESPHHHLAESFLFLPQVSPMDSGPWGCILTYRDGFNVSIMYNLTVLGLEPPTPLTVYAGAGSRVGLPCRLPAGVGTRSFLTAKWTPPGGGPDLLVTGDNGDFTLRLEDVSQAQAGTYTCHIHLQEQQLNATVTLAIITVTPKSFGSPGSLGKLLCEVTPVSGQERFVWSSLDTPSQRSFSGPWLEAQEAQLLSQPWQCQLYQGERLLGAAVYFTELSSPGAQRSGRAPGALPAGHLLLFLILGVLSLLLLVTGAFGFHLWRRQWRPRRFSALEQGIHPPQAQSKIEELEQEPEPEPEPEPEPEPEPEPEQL
# Description: (§1) Briefly the antibodies were incubated with 2×10⁵ target cells at 4° C. for 1 hour. After washing, fluorescence labeled anti-mouse IgG 2nd antibody (Life Technologies) was added and incubated at 4° C. for 1 hour. Geometric median fluorescence intensity (MFI) was detected and EC₅₀ was calculated using GraphPad Prism9.0.
# MFI was detected and EC₅₀ was calculated using GraphPad Prism9.0.
# [2] = molecular target: T2, hFc tagged human LAG3 ECD recombinant protein (human, UniProt P18627 23-450); experiment: competitive ELISA format II: biotin hFc-LAG3 ECD binding to coated His-FGL1
# T2 construct: range 23-450; also called biotin labelled hFc tagged human LAG3 ECD; not shown: human IgG Fc tag
# T2 sequence (looked up): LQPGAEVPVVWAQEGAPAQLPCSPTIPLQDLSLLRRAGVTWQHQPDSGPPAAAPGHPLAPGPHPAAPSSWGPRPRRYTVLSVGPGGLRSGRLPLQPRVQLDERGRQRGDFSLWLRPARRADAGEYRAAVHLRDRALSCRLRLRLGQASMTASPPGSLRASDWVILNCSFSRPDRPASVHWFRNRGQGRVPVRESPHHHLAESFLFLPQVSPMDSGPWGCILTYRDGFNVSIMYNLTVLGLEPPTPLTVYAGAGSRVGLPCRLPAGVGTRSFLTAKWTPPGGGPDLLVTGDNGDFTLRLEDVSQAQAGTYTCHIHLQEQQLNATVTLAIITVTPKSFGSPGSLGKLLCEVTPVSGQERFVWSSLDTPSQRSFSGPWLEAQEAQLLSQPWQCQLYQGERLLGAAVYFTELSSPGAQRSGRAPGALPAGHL
# Description: (§2) After washing, HRP labeled anti-His 2nd antibody (Sigma) was added and incubated at 37° C. for 1 hour. Then, 100 μl/well of TMB solution (Biotechnology) was added. After incubation for 15 minutes at room temperature, the reaction was stopped by the addition of 50 μl of 1N HCl. OD 450 nm was read. […] After washing, HRP labeled anti-SA 2nd antibody (Sigma) was added and incubated at 37° C. for 1 hour. Then, 100 μl/well of TMB solution (Biotechnology) was added. After incubation for 15 minutes at room temperature, the reaction was stopped by the addition of 50 μl of 1N HCl. OD 450 nm was read. […] The competition assay of format III is a competitive FACS assay. […] After washing, dye labeled anti-His 2nd antibody (Sigma) was added and incubated at 37° C. for 1 hour. Fluorescence intensity was detected.
# [3] = molecular target: T3, human LAG3 ECD recombinant protein (plate coated, tag not stated) (human, UniProt P18627 23-450); experiment: competitive ELISA format I: His-FGL1 binding to coated LAG3 ECD
# T3 construct: extracellular domain
# T3 sequence (looked up): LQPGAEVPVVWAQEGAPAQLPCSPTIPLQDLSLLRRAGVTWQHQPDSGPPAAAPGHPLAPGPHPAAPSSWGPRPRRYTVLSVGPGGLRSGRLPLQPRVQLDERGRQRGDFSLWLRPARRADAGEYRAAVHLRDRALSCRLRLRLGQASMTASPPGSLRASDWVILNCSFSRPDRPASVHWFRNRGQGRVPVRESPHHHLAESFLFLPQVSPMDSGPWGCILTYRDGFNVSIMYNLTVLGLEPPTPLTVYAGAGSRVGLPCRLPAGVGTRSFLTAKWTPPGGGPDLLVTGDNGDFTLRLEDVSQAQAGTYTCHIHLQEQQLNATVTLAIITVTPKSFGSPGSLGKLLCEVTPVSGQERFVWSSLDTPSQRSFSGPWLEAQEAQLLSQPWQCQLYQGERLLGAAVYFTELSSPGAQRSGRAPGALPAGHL
# Description: as §2
# [4] = molecular target: T4, mFc tagged human LAG3 ECD recombinant protein (human, UniProt P18627 23-450); experiment: competitive FACS: mFc-LAG3 ECD binding to Raji cells (MHC II)
# T4 construct: extracellular domain; purchased from Biointron; not shown: mouse IgG Fc (mFc) tag
# T4 sequence (looked up): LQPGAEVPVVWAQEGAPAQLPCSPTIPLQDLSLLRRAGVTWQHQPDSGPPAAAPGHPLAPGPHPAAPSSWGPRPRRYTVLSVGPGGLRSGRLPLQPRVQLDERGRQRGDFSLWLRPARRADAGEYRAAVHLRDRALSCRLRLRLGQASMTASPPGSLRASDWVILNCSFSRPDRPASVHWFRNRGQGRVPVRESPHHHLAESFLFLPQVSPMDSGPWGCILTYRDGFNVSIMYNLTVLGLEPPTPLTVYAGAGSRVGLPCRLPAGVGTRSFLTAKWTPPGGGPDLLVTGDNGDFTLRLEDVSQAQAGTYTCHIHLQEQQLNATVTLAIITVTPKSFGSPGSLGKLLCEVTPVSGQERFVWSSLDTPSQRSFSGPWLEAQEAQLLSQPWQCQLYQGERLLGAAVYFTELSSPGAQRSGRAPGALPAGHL
# Description: Activity of the purified chimeric antibodies to block LAG3 and MHC II interaction was determined by competitive FACS assay. […] After washing, dye labeled anti-mouse Fc 2nd antibody (Sigma) was added and incubated at 37° C. for 1 hour. Fluorescence intensity was detected.
# [5] = molecular target: T5, cyno LAG3, full length, stably expressed on 293F cells (cyno); experiment: FACS on 293F-cyno LAG3 cells, 20 nM antibody
# T5 construct: whole, on cells
# Description: as §1
# [6] = molecular target: T6, hFc tagged human LAG3 D1-D2 recombinant protein (human, UniProt P18627 23-261); experiment: ELISA, coated hFc-hLAG3 D1-D2
# T6 construct: range 23-261; generated by Chempartner; also called hLAG3 D1-D2; not shown: human IgG Fc tag
# T6 sequence (looked up): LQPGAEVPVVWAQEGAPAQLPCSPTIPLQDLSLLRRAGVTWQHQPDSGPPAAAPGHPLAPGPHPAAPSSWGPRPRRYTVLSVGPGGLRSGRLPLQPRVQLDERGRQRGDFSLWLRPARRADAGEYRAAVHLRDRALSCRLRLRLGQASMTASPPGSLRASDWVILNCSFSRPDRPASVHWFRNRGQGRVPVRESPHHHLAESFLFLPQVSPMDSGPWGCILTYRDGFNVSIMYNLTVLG
# Description: Binding activity of the purified hybridoma antibodies against human LAG3 was detected by ELISA assay using hFc tagged human LAG3 D1-D2 recombinant protein. Briefly the antibodies were incubated with ELISA microplate coated antigens at 37° C. for 1 hour. After washing, horseradish peroxidase (HRP) labeled anti-human IgG 2nd Ab (Sigma) was added and incubated at 37° C. for 1 hour. Then, 100 μl/well of TMB solution (Biotechnology) was added. After incubation for 15 minutes at room temperature, the reaction was stopped by the addition of 50 μl of 1N HCl. OD 450 nm was read and EC₅₀ was calculated using GraphPad Prism9.0.
# [7] = molecular target: T2, hFc tagged human LAG3 ECD recombinant …; experiment: competitive ELISA: excess competitor, biotin hFc-LAG3 ECD, coated BAP-050
# Description: (§3) Competitive ELISA assay was used for epitope binning of the purified hybridoma antibodies. […] After washing, HRP labeled anti-streptavidin (SA) 2nd antibody (Sigma) was added and incubated at 37° C. for 1 hour. Then, 100 μl/well of TMB solution (Biotechnology) was added. After incubation for 15 minutes at room temperature, the reaction was stopped by the addition of 50 μl of 1N HCl. OD 450 nm was read. Competition ratio was calculated.
# [8] = molecular target: T7, mouse LAG3, full length, stably expressed on CHOK1 cells (mouse, UniProt Q61790 24-521); experiment: FACS on CHOK1 cells expressing mouse LAG3
# T7 construct: whole, on cells
# T7 sequence (looked up): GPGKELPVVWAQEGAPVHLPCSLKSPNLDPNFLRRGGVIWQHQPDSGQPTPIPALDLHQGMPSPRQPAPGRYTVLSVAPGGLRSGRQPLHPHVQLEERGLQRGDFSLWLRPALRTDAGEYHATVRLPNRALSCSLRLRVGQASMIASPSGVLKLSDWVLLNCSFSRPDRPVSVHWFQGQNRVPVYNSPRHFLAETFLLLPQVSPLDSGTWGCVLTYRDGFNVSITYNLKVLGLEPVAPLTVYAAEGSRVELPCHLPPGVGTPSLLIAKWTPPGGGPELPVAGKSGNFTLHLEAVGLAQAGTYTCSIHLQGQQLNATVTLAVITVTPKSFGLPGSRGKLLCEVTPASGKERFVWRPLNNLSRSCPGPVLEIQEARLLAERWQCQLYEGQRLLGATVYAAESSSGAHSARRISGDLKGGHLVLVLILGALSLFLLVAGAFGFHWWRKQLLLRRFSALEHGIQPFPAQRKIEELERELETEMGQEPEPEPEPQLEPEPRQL
# Description: as §1
# [9] = molecular target: T2, hFc tagged human LAG3 ECD recombinant …; experiment: competitive FACS: hFc-LAG3 ECD binding to Raji cells (MHC II)
# Description: Competitive FACS assay was used to determine whether the purified hybridoma antibodies can block LAG3 and MHC II interaction. […] After washing, dye labeled anti-human Fc 2nd antibody (Sigma) was added and incubated at 37° C. for 1 hour. Fluorescence intensity was detected.
# [10] = molecular target: T2, hFc tagged human LAG3 ECD recombinant …; experiment: competitive ELISA: excess competitor, biotin hFc-LAG3 ECD, coated BMS-986016
# Description: as §3
# [11] = molecular target: T1, human LAG3, full length, stably …; experiment: FACS on 293F-human LAG3 cells
# Description: as §1
Binder,EC50 [1] [nM],TOP MFI [1],IC50 [2] [nM],TOP blocking (%) [2] [%],Blocking ratio at 66.7 nM (%) [3] [%],IC50 [4] [nM],TOP blocking (%) [4] [%],MFI at 20 nM [5] [MFI],EC50 [6] [nM],% competition [7] [%],binding result [8],IC50 [9] [nM],TOP blocking (%) [9] [%],% competition [10] [%],EC50 [11] [nM]
"027c (antibody, human IgG4, V domains shown, human IgG4 S228P / kappa chimeric antibody; also called chimeric antibody 027; not shown: human kappa light chain constant region (pcDNA3.4-hIgGk vector)) VH: EVKILQSGGGLVQPGGSLKLSCAASGIDFSRYWMSWVRRTPGKGLEWIGEINPDSSTINYAPSLKDKFIISRDNAKNTLYLQMSKVRSEDTALYYCARLGIIPTYHYGSSGYYYAMDYWGQGTSVTVSS VL: DVLMTQTPLSLPVSLGDRASISCRSSQTIVHGNGHTSLEWYLQKPGQSPQLLIYKVSNRFSGVPDRFSASGSGTDFTLTISRVEAEDLGVYYCFQVSHVPYTFGGGTKLEIK",2,302,6.13,78.3,26.7,4.5,91.2,–,–,–,–,–,–,–,–
"047c (antibody, human IgG4, V domains shown, human IgG4 S228P / kappa chimeric antibody; also called chimeric antibody 047; not shown: human kappa light chain constant region (pcDNA3.4-hIgGk vector)) VH: QVQLQQSGAELARPGASVKLSCKASGYSFTSYGVNWVKQRTGQGLEWIGEIYPRSGNTYYNERFGDKATLTADKSSSTAYMEIRSLTSEDSAVYFCARGGTYDGYYYAMDYWGQGTSVTVSS VL: DIVLTQSPASLAVSLGQRATISCRASESVDNFGSSFMHWYQQKPGQAPKLLIYRASNLESGIPARFSGSGSRTDFTLTINPVETDDVATYYCQQVNKDPRTFGGGTKLEIK",1.3,249,35.9,12.6,14,3.6,90.4,–,–,–,–,–,–,–,–
"Antibody 021 (antibody, V domains shown, mouse hybridoma antibody) VH: DIQLQESGPGLVKPSQSLSLTCSVTGYSITSGYYWNWIRQFPGNKLEWMGDISYDGGNNYNPSLKNRISITRDTSKNQFFLKLNSVTTEDTATYYCARDITLTGAMDYWGQGTSVTVSS VL: DIVLTQSPASLAVSLGQRATISCRASESVDNYGISFMHWYQQRPGQPPKLLIYRASNLESGIPARFSGSGSRTDFTLTINPVETDDVATYYCQQSNKDPYTFGGGTKLEIK",–,–,–,–,–,–,–,105,0.02,57.1,no binding,4,98.6,6.9,5.52
"Antibody 038 (antibody, V domains shown, mouse hybridoma antibody) VH: DVQVQESGPGLVKPSQSLSLTCSVTGYSITSGYYWNWIRQFPGNKLEWMGYISYDGSNEYNLSLKNRLSITRDTSKNQFFLKLNSVTTEDTATYYCAREEDGYYGGMDYWGQGTSVTVSS VL: DIVMTQSHKFMSASVGVRVSITCRASQDVDTAVAWYQQKPGQSPKLLIYWASTRHTGVPDRFTGSGSGTDFTLTISNVQSEDLADYFCQQYSSYPYTFGGGTKLEIK",–,–,–,–,–,–,–,142,0.07,6.4,no binding,4.2,100,33.5,1.12

# Reference: patent publication US20250313625A1 (ELPISCIENCE SUZHOU BIOPHARMA, published 2025)
